Sequences and labels used below:
B1: 1-554: recombinant Apaf-1 fragment, residues 1-554 of SEQ ID NO: 1 (protein, listed as Homo sapiens)
chain: MDAKARNCLLQHREALEKDIKTSYIMDHMISDGFLTISEEEKVRNEPTQQQRAAMLIKMILKKDNDSYVSFYNALLHEGYKDLAALLHDGIPVVSSSSGKDSVSGITSYVRTVLCEGGVPQRPVVFVTRKKLVNAIQQKLSKLKGEPGWVTIHGMAGCGKSVLAAEAVRDHSLLEGCFPGGVHWVSVGKQDKSGLLMKLQNLCTRLDQDESFSQRLPLNIEEAKDRLRILMLRKHPRSLLILDDVWDSWVLKAFDSQCQILLTTRDKSVTDSVMGPKYVVPVESSLGKEKGLEILSLFVNMKKADLPEQAHSIIKECKGSPLVVSLIGALLRDFPNRWEYYLKQLQNKQFKRIRKSSSYDYEALDEAMSISVEMLREDIKDYYTDLSILQKDVKVPTKVLCILWDMETEEVEDILQEFVNKSLLFCDRNGKSFRYYLHDLQVDFLTEKNCSQLQDLHKKIITQFQRYHQPHTLSPDQEDCMYWYNFLAYHMASAKMHKELCALMFSLDWIKAKTELVGPAHLIHEFVEYRHILDEKDCAVSENFQEFLSLNGHL
B2: 1-570: recombinant Apaf-1 fragment, residues 1-570 of SEQ ID NO: 1 (protein, listed as Homo sapiens)
chain: MDAKARNCLLQHREALEKDIKTSYIMDHMISDGFLTISEEEKVRNEPTQQQRAAMLIKMILKKDNDSYVSFYNALLHEGYKDLAALLHDGIPVVSSSSGKDSVSGITSYVRTVLCEGGVPQRPVVFVTRKKLVNAIQQKLSKLKGEPGWVTIHGMAGCGKSVLAAEAVRDHSLLEGCFPGGVHWVSVGKQDKSGLLMKLQNLCTRLDQDESFSQRLPLNIEEAKDRLRILMLRKHPRSLLILDDVWDSWVLKAFDSQCQILLTTRDKSVTDSVMGPKYVVPVESSLGKEKGLEILSLFVNMKKADLPEQAHSIIKECKGSPLVVSLIGALLRDFPNRWEYYLKQLQNKQFKRIRKSSSYDYEALDEAMSISVEMLREDIKDYYTDLSILQKDVKVPTKVLCILWDMETEEVEDILQEFVNKSLLFCDRNGKSFRYYLHDLQVDFLTEKNCSQLQDLHKKIITQFQRYHQPHTLSPDQEDCMYWYNFLAYHMASAKMHKELCALMFSLDWIKAKTELVGPAHLIHEFVEYRHILDEKDCAVSENFQEFLSLNGHLLGRQPFPNIVQLGLCE
B3: 1-567: recombinant Apaf-1 fragment, residues 1-567 of SEQ ID NO: 1 (protein, listed as Homo sapiens)
chain: MDAKARNCLLQHREALEKDIKTSYIMDHMISDGFLTISEEEKVRNEPTQQQRAAMLIKMILKKDNDSYVSFYNALLHEGYKDLAALLHDGIPVVSSSSGKDSVSGITSYVRTVLCEGGVPQRPVVFVTRKKLVNAIQQKLSKLKGEPGWVTIHGMAGCGKSVLAAEAVRDHSLLEGCFPGGVHWVSVGKQDKSGLLMKLQNLCTRLDQDESFSQRLPLNIEEAKDRLRILMLRKHPRSLLILDDVWDSWVLKAFDSQCQILLTTRDKSVTDSVMGPKYVVPVESSLGKEKGLEILSLFVNMKKADLPEQAHSIIKECKGSPLVVSLIGALLRDFPNRWEYYLKQLQNKQFKRIRKSSSYDYEALDEAMSISVEMLREDIKDYYTDLSILQKDVKVPTKVLCILWDMETEEVEDILQEFVNKSLLFCDRNGKSFRYYLHDLQVDFLTEKNCSQLQDLHKKIITQFQRYHQPHTLSPDQEDCMYWYNFLAYHMASAKMHKELCALMFSLDWIKAKTELVGPAHLIHEFVEYRHILDEKDCAVSENFQEFLSLNGHLLGRQPFPNIVQLG
B4: 1-349: recombinant Apaf-1 fragment, residues 1-349 of SEQ ID NO: 1 (protein, listed as Homo sapiens)
chain: MDAKARNCLLQHREALEKDIKTSYIMDHMISDGFLTISEEEKVRNEPTQQQRAAMLIKMILKKDNDSYVSFYNALLHEGYKDLAALLHDGIPVVSSSSGKDSVSGITSYVRTVLCEGGVPQRPVVFVTRKKLVNAIQQKLSKLKGEPGWVTIHGMAGCGKSVLAAEAVRDHSLLEGCFPGGVHWVSVGKQDKSGLLMKLQNLCTRLDQDESFSQRLPLNIEEAKDRLRILMLRKHPRSLLILDDVWDSWVLKAFDSQCQILLTTRDKSVTDSVMGPKYVVPVESSLGKEKGLEILSLFVNMKKADLPEQAHSIIKECKGSPLVVSLIGALLRDFPNRWEYYLKQLQNKQ
B5: 1-611: recombinant Apaf-1 protein, residues 1-611 (protein, UniProt O14727 1-611, looked up, fragment)
chain: MDAKARNCLLQHREALEKDIKTSYIMDHMISDGFLTISEEEKVRNEPTQQQRAAMLIKMILKKDNDSYVSFYNALLHEGYKDLAALLHDGIPVVSSSSGKDSVSGITSYVRTVLCEGGVPQRPVVFVTRKKLVNAIQQKLSKLKGEPGWVTIHGMAGCGKSVLAAEAVRDHSLLEGCFPGGVHWVSVGKQDKSGLLMKLQNLCTRLDQDESFSQRLPLNIEEAKDRLRILMLRKHPRSLLILDDVWDSWVLKAFDSQCQILLTTRDKSVTDSVMGPKYVVPVESSLGKEKGLEILSLFVNMKKADLPEQAHSIIKECKGSPLVVSLIGALLRDFPNRWEYYLKQLQNKQFKRIRKSSSYDYEALDEAMSISVEMLREDIKDYYTDLSILQKDVKVPTKVLCILWDMETEEVEDILQEFVNKSLLFCDRNGKSFRYYLHDLQVDFLTEKNCSQLQDLHKKIITQFQRYHQPHTLSPDQEDCMYWYNFLAYHMASAKMHKELCALMFSLDWIKAKTELVGPAHLIHEFVEYRHILDEKDCAVSENFQEFLSLNGHLLGRQPFPNIVQLGLCEPETSEVYQQAKLQAKQEVDNGMLYLEWINKKNITNLSRLVV
B6: 1-591 K160R: Apaf-1 fragment 1-591 of SEQ ID NO: 1 with K160R substitution (protein, listed as Homo sapiens)
chain: MDAKARNCLLQHREALEKDIKTSYIMDHMISDGFLTISEEEKVRNEPTQQQRAAMLIKMILKKDNDSYVSFYNALLHEGYKDLAALLHDGIPVVSSSSGKDSVSGITSYVRTVLCEGGVPQRPVVFVTRKKLVNAIQQKLSKLKGEPGWVTIHGMAGCGRSVLAAEAVRDHSLLEGCFPGGVHWVSVGKQDKSGLLMKLQNLCTRLDQDESFSQRLPLNIEEAKDRLRILMLRKHPRSLLILDDVWDSWVLKAFDSQCQILLTTRDKSVTDSVMGPKYVVPVESSLGKEKGLEILSLFVNMKKADLPEQAHSIIKECKGSPLVVSLIGALLRDFPNRWEYYLKQLQNKQFKRIRKSSSYDYEALDEAMSISVEMLREDIKDYYTDLSILQKDVKVPTKVLCILWDMETEEVEDILQEFVNKSLLFCDRNGKSFRYYLHDLQVDFLTEKNCSQLQDLHKKIITQFQRYHQPHTLSPDQEDCMYWYNFLAYHMASAKMHKELCALMFSLDWIKAKTELVGPAHLIHEFVEYRHILDEKDCAVSENFQEFLSLNGHLLGRQPFPNIVQLGLCEPETSEVYQQAKLQAKQEVDNG
B7: 1-286: recombinant Apaf-1 fragment, residues 1-286 of SEQ ID NO: 1 (protein, listed as Homo sapiens)
chain: MDAKARNCLLQHREALEKDIKTSYIMDHMISDGFLTISEEEKVRNEPTQQQRAAMLIKMILKKDNDSYVSFYNALLHEGYKDLAALLHDGIPVVSSSSGKDSVSGITSYVRTVLCEGGVPQRPVVFVTRKKLVNAIQQKLSKLKGEPGWVTIHGMAGCGKSVLAAEAVRDHSLLEGCFPGGVHWVSVGKQDKSGLLMKLQNLCTRLDQDESFSQRLPLNIEEAKDRLRILMLRKHPRSLLILDDVWDSWVLKAFDSQCQILLTTRDKSVTDSVMGPKYVVPVESSL

The data set is classed as physicochemical, E. coli. How it is done:
Preferably, solubility of the fragment is assessed in a lysate of a bacterial culture used to produce the fragment at a concentration of at least 1 milligram per liter of bacterial culture.
All constructs for protein expression were generated using a standard PCR-based cloning strategy, and the identity of individual clones was verified by double-stranded plasmid sequencing. A soluble Apaf-1 fragment (residues 1-591, sequence (SEQ ID NO: 1) shown in FIG. 1) was over-expressed in Escherichia coli strain BL21(DE3) using plasmid vector pET29 having the nucleotide sequence described by Jiang et al. (2000, J. Biol. Chem. 275:31199-31203) operatively ligated therein. The coding sequence included an additional sequence encoding eight amino acid residues at its carboxy-terminal end (i.e., linked to residue 591 in the translated protein). These residues (Leu-Glu-His6) included a nickel-binding hexa-histidine sequence used for metal affinity chromatographic purification of the expressed protein. Soluble Apaf-1 was purified from the cell lysate using a Ni-NTA (nitrilotriacetic acid-ligated nickel; Qiagen) chromatography column. Dithiothreitol (DTT) and ethylenediamine tetraacetic acid (EDTA) were added to the eluted fraction in final concentrations of 5 millimolar each. After incubation for 30 minutes on ice, the protein solution was applied to an anion-exchange column (Source-15Q, Pharmacia) for further purification.
Turning to B1, the Solubility result is reported as “++”; the “solubility and solution behavior (in words)” value is “good solubility and solution behavior”.
As for B2, the Solubility entry is “+++”; the “solubility and solution behavior (in words)” value is “good solubility and solution behavior”.
With B3, the Solubility entry is “+++”; the “solubility and solution behavior (in words)” value was “good solubility and solution behavior”.
B4: the Solubility result is “++”; the “solubility and solution behavior (in words)” value is reported as “soluble to significant extent”.
For B5, the “solubility and solution behavior (in words)” value was “good solubility and solution behavior”.
For the molecule B6, the Solubility entry was “++”; the “solubility and solution behavior (in words)” value is given as “without significant loss of activity or solubility”.
As for B7, the “solubility and solution behavior (in words)” value is recorded as “largely insoluble”.

For the origin of these results see patent publication US7432093B2, “Soluble, functional apoptotic protease-activating factor 1 fragments” (The Trustees of Princeton University, priority 2004, dated 2008).
